Biological target: CXCR2 expressed on 300-19 pre-B cells
Test: cell-based or functional assay

With “human wild-type GCP-2 (granulocyte chemotactic protein 2, CXCL6), recombinant (from UniProt P80162 38-114) (ligand)” the chemotaxis in Boyden chambers (Transwell), optimal concentration was 50 nM and the transendothelial migration in Boyden chambers (EA.hy 926 monolayer), optimal concentration was 50 nM.

Reference: US20260092091A1
